Drawing on PMC7748142, this text covers stoichiometry N for 1 molecule.

The target of the assay is T1, peroxiredoxin 1 (PRDX1), murine lung fibroblasts (mouse (endogenous in MLFs)), P35700.
T1 chain: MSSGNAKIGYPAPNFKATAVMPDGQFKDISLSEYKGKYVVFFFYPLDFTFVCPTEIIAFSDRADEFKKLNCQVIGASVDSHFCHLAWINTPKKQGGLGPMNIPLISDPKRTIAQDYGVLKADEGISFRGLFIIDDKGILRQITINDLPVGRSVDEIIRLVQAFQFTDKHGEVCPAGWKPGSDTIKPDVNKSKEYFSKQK
Nature of the assay: non-reducing SDS-PAGE with Western blot; A549 or MLF cells treated with Auranofin (A549: 10 uM, MLF: 2 uM) alone or with KU55933 (10 uM, 1 h pre-treatment); lysed in CHAPS buffer with 100 mM NEM; boiled in non-reducing sample buffer; disulfide-linked dimers. Particulars: remark: other sources report otherwise. In general terms: A western blot detects proteins with antibodies after separation by electrophoresis.

B1: peroxiredoxin 1 (PRDX1), murine lung fibroblasts, P35700 1-199 (enzyme)
chain: MSSGNAKIGYPAPNFKATAVMPDGQFKDISLSEYKGKYVVFFFYPLDFTFVCPTEIIAFSDRADEFKKLNCQVIGASVDSHFCHLAWINTPKKQGGLGPMNIPLISDPKRTIAQDYGVLKADEGISFRGLFIIDDKGILRQITINDLPVGRSVDEIIRLVQAFQFTDKHGEVCPAGWKPGSDTIKPDVNKSKEYFSKQK
Broadly, the stoichiometry N is a count of units in the complex or per binding partner. With B1, the stoichiometry N is 2.
